The text below walks through data of article PMC12164381.

Assay in all cases: SPR
In assay [1] the target is SARS-CoV-2 Spike RBD, original (Wuhan) strain (SARS-CoV-2, original Wuhan strain) (UniProt P0DTC2).
Assay [2] concerns the target Efficient evolution design from the S309 starting point (Table 4, design row 1, the 4th table, row 4).
The target of assay [3] is Inverse folding design from the DXP-604 starting point (Table 5, design row 1, the 5th table, row 4).
For assay [4], the target named is Inverse folding design from the DXP-604 starting point (Table 5, design row 2, the 5th table, row 5).
For assay [5], the target named is Inverse folding design from the DXP-604 starting point (Table 5, design row 3, the 5th table, row 6).
The target in assay [6] is Inverse folding design from the DXP-604 starting point (Table 5, design row 4, the 5th table, row 7).
For assay [7], the target named is Inverse folding design from the DXP-604 starting point (Table 5, design row 5, the 5th table, row 8).
Assay [8] deals with Inverse folding design from the DXP-604 starting point (Table 5, design row 6, the 5th table, row 9).
Assay [9] deals with Inverse folding design from the DXP-604 starting point (Table 5, design row 7, the 5th table, row 10).
In assay [10] the target is OAS scanning design from the DXP-604 starting point (Table 2, 1st design row, the 2nd table, row 8).
Assay [11] concerns the target S309.
Assay [12] deals with BD55–5840.
Assay [13] concerns the target DXP-604.
For assay [14], the target named is Efficient evolution design from the S309 starting point (Table 4, design row 2, the 4th table, row 5).
For assay [15], the target named is Efficient evolution design from the S309 starting point (Table 4, design row 5, the 4th table, row 8).
Assay [16] has as its target Inverse folding design from the LY-CoV1404 starting point (Table 5, design row 1, the 5th table, row 12).
The target of assay [17] is Inverse folding design from the LY-CoV1404 starting point (Table 5, design row 2, the 5th table, row 13).
The target in assay [18] is Efficient evolution design from the S309 starting point (Table 4, design row 3, the 4th table, row 6).
For assay [19], the target named is Efficient evolution design from the S309 starting point (Table 4, design row 6, the 4th table, row 9).
The target of assay [20] is OAS scanning design from the DXP-604 starting point (Table 2, 2nd design row, the 2nd table, row 9).

Consider DXP-604 (antibody), for which, in assay [1], the negative-log KD (pKD) is 9.67 -log10(KD).
For the substance “SARS-CoV-2 Spike RBD, XBB.1 strain (from UniProt P0DTC2) (domain or fragment)”, the pKD is 8.7 -log10(KD) in assay [2]; 5.78 -log10(KD) in assay [3]; 5.99 -log10(KD) in [4]; 5.12 -log10(KD) in assay [5]; 5.84 -log10(KD) in [6]; 5.91 -log10(KD) in [7]. Besides, the pKD in assay [8] was 6.37 -log10(KD); in assay [9], 6.15 -log10(KD); in [10] it was 5.35 -log10(KD); in assay [11], 8.93 -log10(KD).
Take “SARS-CoV-2 Spike RBD, XBB.1.5 strain (from UniProt P0DTC2) (domain or fragment)”: the pKD is 6.14 -log10(KD) in assay [12]; 5.84 -log10(KD) in [13]; 8.89 -log10(KD) in [2]; 8.93 -log10(KD) in assay [14]; 9.12 -log10(KD) in [15]; 4.87 -log10(KD) in assay [16]. For the same substance, the pKD was 4.88 -log10(KD) in assay [17] and 5.87 -log10(KD) in assay [10].
For the substance “SARS-CoV-2 Spike RBD, original (Wuhan) strain (from UniProt P0DTC2) (domain or fragment)”, the negative-log KD (pKD) was 8.7 -log10(KD) in assay [2]; 8.7 -log10(KD) in assay [18]; 8.7 -log10(KD) in [19]; 9.07 -log10(KD) in assay [10]; 9.38 -log10(KD) in [20].

What is called pKD is the negative decadic logarithm of the KD, by convention in mol/L. High values mean a low KD, low ones a high KD.
